The values that follow come from patent US7396816B2, “Low-molecular weight peptides inhibiting ion channel activity” (Pharmadesign, Inc., priority 2003, dated 2008).

Where no end group is shown, it is not given here.

The target of assay [1] is T1, Ca^2+ dependant BigK channel derived from heart muscle (myocardial SA channel) (Gallus gallus, UniProt Q8AYS8).
T1 construct: expressed in transfected cells; host or cells: CHO cells force-expressing the channel cDNA, or the endogenous channel of chicken ventricular muscle
As to the kind of experiment: single channel current recording by patch clamp (inside-out excised patch, back-fill). The class given is cell-based, chicken. The settings on record: for inhibiting activity: primary screening, channel's open probability (Po); for level of inhibiting activity compared with GsMTx-4: suggested from time taken for inhibition; for inhibition of wild-type SA channel: wild-type myocardial SA channel, FIG. 13. How it is done: Activity assay of the peptides was carried out by the most reliable single channel current recording method using the patch clamp method. As the subject of the assay, Ca^2+ dependant BigK channel (Kawakubo et. Am J Physiol, 276: H1827.1999) derived from heart muscle was employed. By applying this channel to the expressed ventricle muscle of chicken or to CHO cells force-expressing the cDNA of this channel with the cell-attached patch clamp method, an inside-out excised patch was formed, and single channel current recordings were taken under a fixed membrane potential. Assuming that the designed synthetic peptide blocks the channel extracellularly the same as GsMTx-4, the space a fixed distance above the glass pipette used for recording was filled with the peptide of a known concentration beforehand, and administration was carried out by back-fill which utilizes diffusion to reach the channel, With this method, the concentration of the peptide inside the pipette reaches equilibrium 15 to 20 minutes after the start of diffusion, and so the dissociation constant of the peptide can be estimated from the inhibition ratio at 20 minutes and onwards. Or, the relative inhibition of the peptide can be estimated from the time taken for inhibition. If the exact dissociation constant of the peptide is to be calculated, it is necessary to prepare an outside-out excised patch, take single channel current recordings, analyze the inhibition effects of various peptides with different concentration, and obtain a dose-inhibition curve; however, as this method requires special technology and as this is the primary screening of the various designed synthetic peptides, the assay method combining the inside-out excised patch and back-fill described above was used to make a rough estimate of the inhibition effects of the peptides. […] Concerning the scale of evaluation, the channel's open probability (Po, indicated in percentage) was used, and the level of inhibition was expressed by the inhibition ratio (percentage) with the control (prior to the administration of the peptide) as the standard, or by the time taken for inhibition.
For orientation: In patch-clamp work, channel activity is measured electrically.

A further assay concerns the target T2, STREX-deletion-mutant (Gallus gallus, UniProt Q8AYS8, DEL657-715).
T2 construct: expressed in transfected cells; host or cells: CHO cells (inferred: a deletion mutant must be expressed heterologously, and CHO is the only expression host named for this channel)
As to the kind of experiment: single channel current recording, specificity to mechano-sensitive channel. The following applies: mutant lacking the 59 amino acid STREX sequence, FIG. 13. The class given is cell-based. How it is done: Activity assay of the peptides was carried out by the most reliable single channel current recording method using the patch clamp method. As the subject of the assay, Ca^2+ dependant BigK channel (Kawakubo et. Am J Physiol, 276: H1827.1999) derived from heart muscle was employed. By applying this channel to the expressed ventricle muscle of chicken or to CHO cells force-expressing the cDNA of this channel with the cell-attached patch clamp method, an inside-out excised patch was formed, and single channel current recordings were taken under a fixed membrane potential. […] If the exact dissociation constant of the peptide is to be calculated, it is necessary to prepare an outside-out excised patch, take single channel current recordings, analyze the inhibition effects of various peptides with different concentration, and obtain a dose-inhibition curve; however, as this method requires special technology and as this is the primary screening of the various designed synthetic peptides, the assay method combining the inside-out excised patch and back-fill described above was used to make a rough estimate of the inhibition effects of the peptides. […]

T1 sequence (Q8AYS8 1-1195 isoform Q8AYS8-3): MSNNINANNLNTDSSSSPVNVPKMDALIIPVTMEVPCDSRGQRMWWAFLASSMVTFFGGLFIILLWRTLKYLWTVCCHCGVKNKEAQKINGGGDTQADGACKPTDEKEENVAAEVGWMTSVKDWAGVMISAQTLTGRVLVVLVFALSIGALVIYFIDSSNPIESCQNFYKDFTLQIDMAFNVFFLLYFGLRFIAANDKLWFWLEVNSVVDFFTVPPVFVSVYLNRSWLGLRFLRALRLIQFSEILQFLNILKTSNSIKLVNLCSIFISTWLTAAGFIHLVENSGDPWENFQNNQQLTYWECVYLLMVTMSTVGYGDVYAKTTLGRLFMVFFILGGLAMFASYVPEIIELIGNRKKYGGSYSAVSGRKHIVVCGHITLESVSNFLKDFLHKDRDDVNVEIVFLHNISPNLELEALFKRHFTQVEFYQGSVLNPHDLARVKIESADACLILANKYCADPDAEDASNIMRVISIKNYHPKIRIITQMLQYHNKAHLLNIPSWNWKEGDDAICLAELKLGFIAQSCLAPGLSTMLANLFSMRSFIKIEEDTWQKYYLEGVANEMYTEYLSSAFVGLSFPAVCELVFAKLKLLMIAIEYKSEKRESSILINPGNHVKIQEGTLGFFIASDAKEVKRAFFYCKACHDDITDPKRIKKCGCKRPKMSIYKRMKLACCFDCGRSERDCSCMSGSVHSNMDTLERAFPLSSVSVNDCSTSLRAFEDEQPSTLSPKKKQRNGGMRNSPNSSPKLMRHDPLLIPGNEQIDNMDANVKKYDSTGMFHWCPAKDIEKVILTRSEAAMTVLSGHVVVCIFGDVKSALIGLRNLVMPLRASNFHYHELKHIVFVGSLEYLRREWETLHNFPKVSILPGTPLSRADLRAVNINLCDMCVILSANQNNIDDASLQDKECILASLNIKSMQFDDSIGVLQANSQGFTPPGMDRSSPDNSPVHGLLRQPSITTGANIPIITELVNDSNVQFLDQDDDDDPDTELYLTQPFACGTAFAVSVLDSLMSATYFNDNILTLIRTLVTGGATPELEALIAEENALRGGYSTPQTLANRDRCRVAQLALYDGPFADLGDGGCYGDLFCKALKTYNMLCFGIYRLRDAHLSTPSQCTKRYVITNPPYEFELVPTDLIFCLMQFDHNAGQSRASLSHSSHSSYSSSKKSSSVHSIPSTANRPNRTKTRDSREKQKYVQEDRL
T2 sequence (Q8AYS8 with tags, fused parts or gaps isoform Q8AYS8-3 DEL657-715): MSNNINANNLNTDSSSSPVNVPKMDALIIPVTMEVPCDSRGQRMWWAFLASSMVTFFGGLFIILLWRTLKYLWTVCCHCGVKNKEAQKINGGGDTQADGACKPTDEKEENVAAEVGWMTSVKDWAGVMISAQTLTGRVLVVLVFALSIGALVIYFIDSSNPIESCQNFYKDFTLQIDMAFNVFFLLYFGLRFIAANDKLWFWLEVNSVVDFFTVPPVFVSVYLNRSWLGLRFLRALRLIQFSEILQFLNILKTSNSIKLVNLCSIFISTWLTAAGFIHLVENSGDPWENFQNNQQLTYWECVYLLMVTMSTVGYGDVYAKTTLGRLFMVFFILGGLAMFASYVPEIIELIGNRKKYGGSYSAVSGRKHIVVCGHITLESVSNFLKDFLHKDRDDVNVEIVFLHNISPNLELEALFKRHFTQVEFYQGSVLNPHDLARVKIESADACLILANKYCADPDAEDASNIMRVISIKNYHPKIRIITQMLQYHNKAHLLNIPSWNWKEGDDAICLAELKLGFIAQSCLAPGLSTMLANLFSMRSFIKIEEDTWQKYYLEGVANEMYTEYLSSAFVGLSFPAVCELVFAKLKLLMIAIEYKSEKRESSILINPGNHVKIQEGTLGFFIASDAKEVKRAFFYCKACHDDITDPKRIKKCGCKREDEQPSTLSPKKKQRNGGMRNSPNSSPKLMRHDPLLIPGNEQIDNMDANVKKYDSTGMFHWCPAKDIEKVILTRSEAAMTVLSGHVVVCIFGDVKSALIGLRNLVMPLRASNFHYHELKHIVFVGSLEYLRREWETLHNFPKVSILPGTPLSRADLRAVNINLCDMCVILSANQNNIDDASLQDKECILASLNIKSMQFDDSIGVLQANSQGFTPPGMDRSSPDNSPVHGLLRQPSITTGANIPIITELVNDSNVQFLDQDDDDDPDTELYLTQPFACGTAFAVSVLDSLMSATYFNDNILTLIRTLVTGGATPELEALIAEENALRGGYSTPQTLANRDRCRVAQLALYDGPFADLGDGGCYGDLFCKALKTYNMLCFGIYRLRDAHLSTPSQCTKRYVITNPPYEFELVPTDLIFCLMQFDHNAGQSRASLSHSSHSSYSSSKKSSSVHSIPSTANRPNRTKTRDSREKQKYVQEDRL

Take “TVP017: mutation in which the 3rd R from the N-terminus of TVP004 had been substituted by A (CAAPKLKC)”: in assay [1] (after 6 minutes), the “inhibition (channel's open probability Po vs control)” value was determined as 100%. For the same substance, in assay [1], the inhibiting activity result is reported as “found to show inhibiting activity” and the “level of inhibiting activity compared with GsMTx-4” value is recorded as “higher level than”. The “level of inhibition compared with TVP003” value in assay [1] (time taken for inhibition) is “even higher level of inhibition than TVP003”.
For “TVP019: mutation in which the 7th K from the N-terminus of TVP004 had been substituted by A (CARPKLAC)”, the “inhibition (channel's open probability Po vs control)” value in assay [1] (after 14 minutes) is reported as “approximately 80%”. The inhibiting activity entry in assay [1] is “found to show inhibiting activity”.
Take “TVP005: designed peptide from GsMTx-4 comprising loops 2 and 3 (WKCNPNDDKAARPKLKC)”: in assay [1] (after 20 minutes), the “inhibition (channel's open probability Po vs control)” value is “about 60%”. Besides, in assay [1], the inhibiting activity result is listed as “displayed inhibiting activity”.
As to WKCNPNDDKC [TVP003], the “inhibition (channel's open probability Po vs control)” value in assay [1] (after 8 minutes) was found to be 100%. For the same substance, the dissociation constant entry in assay [1] (estimated from inhibition ratio) is reported as “μM order or lower”. In assay [1], the inhibiting activity entry is “displayed inhibiting activity”, the “level of inhibiting activity compared with GsMTx-4” value is reported as “the same as or higher than” and the “inhibition of wild-type SA channel” value is “inhibit the wild-type SA channel”. Moreover, at STREX-deletion-mutant, the “inhibition of STREX-deletion-mutant” value is reported as “do not inhibit the STREX-deletion-mutant hardly at all”.
As to “GsMTx-4 (GCLEFWWKCNPNDDKCCRPKLKCSKLFKLCNFSSG; disulfide (positions not given here); ends not checked; listed as Grammostola spatulata) [reference compound]”, in assay [1], the “inhibition of wild-type SA channel” value is “inhibit the wild-type SA channel”. Further, the “inhibition of STREX-deletion-mutant” value in the assay with STREX-deletion-mutant is given as “do not inhibit the STREX-deletion-mutant hardly at all”.
As to “TVP004: designed peptide from GsMTx-4 comprising loop 3 (CARPKLKC)”, the “inhibition (channel's open probability Po vs control)” value was 95% in assay [1] (10 μM, after 16 minutes) and “about 60%” in assay [1] (after 8 minutes). In assay [1], the inhibiting activity result is reported as “displayed inhibiting activity”.
